{
  "source": "patent US20220062415A1",
  "about": "“Methods of Treating Multiple Myeloma” (Janssen Biotech, Inc., priority 2018, published 2022)",
  "key": {"[1]": {"experiment": "Phase 3 Study: daratumumab serum pharmacokinetics", "format": "in vivo, human", "conditions": "daratumumab 16 mg/kg in D-VMP", "text": "(§1) Clinical pharmacology information provided herein focuses on data from subjects with evaluable pharmacokinetic data treated with D-VMP in the Phase 3 Study (n=342), and supportive information derived from the Phase 1b Study in the cohort of subjects treated with D-VMP having evaluable pharmacokinetic data (n=11). In addition, an updated population pharmacokinetics (PPK) analysis including data from the Phase 3 and Phase 1b Studies and exposure-response (efficacy and safety) analyses including data from Phase 3 Study were conducted."}, "[2]": {"conditions": "in vivo", "text": "The first subject in this cohort started treatment with D-VMP. Subjects in the D-VMP cohort of the Phase 1b Study received treatment for a maximum of 9 cycles. Long-term follow-up for this cohort continued until death, loss to follow up, withdrawal of consent, or study end, whichever occurred first. The primary objective for the Phase 1b Study was to evaluate safety and tolerability of the combination regimen. Efficacy assessments (primary efficacy endpoint, overall response rate (ORR)) were performed per International Myeloma Working Group (IMWG) guidelines (Kumar S, et al. Lancet Oncol. 2016;17(8):e328-e346, hereby incorporated by reference in its entirety), and a computerized, validated algorithm as described above was utilized for determining response based on IMWG criteria.\nas §1"}, "[3]": {"experiment": "Pooled infusion-related reaction analysis, 1,166 subjects treated with daratumumab 16 mg/kg IV", "format": "in vivo, human"}, "[4]": {"conditions": "mean±SD, cited from earlier work"}, "[5]": {"conditions": "in vivo", "remark": "listed apart in the source"}, "[6]": {"conditions": "cited from earlier work"}},
  "note": "Read-outs that look alike come from different tables or passages of the source.",
  "data": [
    {"substance": "daratumumab", "values": [
      {"measurement": "mean end-of-infusion concentration following the first dose", "setting": "[1]", "value": 266.7, "unit": "µg/mL"},
      {"measurement": "mean end-of-infusion concentration following the first dose", "setting": "[2]", "value": 332.2, "unit": "µg/mL"},
      {"measurement": "Grade 4 IRRs", "setting": "[3]; 2 of 1,166 subjects", "value": 0.2, "unit": "%"},
      {"measurement": "incidence of any grade IRR", "setting": "[3]; first infusion, pooled 1,166 subjects", "value": 40, "unit": "%"},
      {"measurement": "incidence of infusion modification due to IRRs", "setting": "[3]; pooled", "value": 37, "unit": "%"},
      {"measurement": "incidence of any grade IRR", "setting": "[3]; second infusion, pooled", "value": 2, "unit": "%"},
      {"measurement": "subjects with a Grade 3 IRR", "setting": "[3]; second or subsequent infusion, pooled", "value": "< 1", "unit": "%"},
      {"measurement": "incidence of any grade IRR", "setting": "[3]; subsequent infusions, pooled", "value": 4, "unit": "%"},
      {"measurement": "half-life", "setting": "[4]; monotherapy study data", "value": "18 ± 9", "unit": "days"},
      {"measurement": "half-life", "setting": "[4]; previous combination therapy study data", "value": "23.3 ± 11.8", "unit": "days"},
      {"measurement": "model-derived half-life associated with the CL", "setting": "[5]; human", "value": "approximately 22.1±9.7 days"},
      {"measurement": "estimated Vi value", "setting": "[5]", "value": "approached plasma volume"},
      {"measurement": "time to apparent steady state", "setting": "[5]", "value": "approximately 5 months"},
      {"measurement": "mean maximum trough concentration", "setting": "[6]; after 8 weekly doses, monotherapy", "value": 573.5, "unit": "µg/mL"},
      {"measurement": "mean end-of-infusion concentration following the first dose", "setting": "[6]; daratumumab monotherapy, Phase 2 study", "value": 312.5, "unit": "µg/mL"},
      {"measurement": "increase in daratumumab compared with the first dose", "setting": "[6]; end of 8 weekly doses of monotherapy", "value": 2.9, "unit": "fold"}
    ]}
  ]
}
